Results as given in patent US20160040149A1, “Compositions Having Dicamba Decarboxylase Activity and Methods of Use” (priority 2013, published 2016).

Test: Saturation mutagenesis of SEQ ID NO:109: dicamba decarboxylation activity of point mutants (CO2 released), fold of backbone (Tables 7, 8, Megatable 1)
Conditions: decarboxylation activity (CO2 released) of point mutant vs unmutated backbone protein; backbone SEQ ID NO: 109

Molecule | Fold Activity [fold]
7 (protein, listed as Legionella pneumophila) MAIVDFETHFITEACIDYLTQRQEVPKLVPELNGAYTMCFTPDVSLFHTSALMEELLSLNEQRLAIMDQAGVTIQVLSLTTINGIDSCPGDENKSTALAREVNDQLYSAIQRHPERFKGFASISPYDVKEGVKELERAISQLGFVGWLTHSNFGEDNYLDDKTYWPLLEAAEGLNIPIYLHPNVPIMREFGKYGFALGGSALGFEFDTALCLMRMILGGVFDAFPKLKIMLGHLGETMPFLMERLDHLYRIPDLKAYRPSIQRIPSEVLRQNVYITTSGRFFVPALRYVLEVMGEDRVLFASDYPMESLLDATRFIQDSDLSNQTKQKIFSINAKNLNLI | 1.3
123 (protein, Dicamba decarboxylase variant clone: S03902153) MAQGKVALEEHFAIPETLQDSAGFVPGDYWKELQHRLLDIQDTRLKLMDAHGIETMILSLAAPAVQAIPDRRKAIEIARRANDVLAEECAKRPDRFLAFAALPLQDPDAATEELQRCVNDLGFVGALVNGFSQEGDGQTPLYYDLPQYRPFWGEVEKLDVPFYLHPRNPLPQDSRIYDGHPWLLGPTWAFAQETAVHALRLMASGLFDEHPRLNIILGHMGEGLPYMMWRIDHRVAWVKLPPRYPAKRRFMDYFNENFHITTSGNFRTQTLIDAILEIGADRILFSTDWPFENIDHASDWFNATSIAEADRVKIGRTNARRLFKLDGA | 1.3
125 (protein, Dicamba decarboxylase variant clone: S03970523) MAQGKVALEEHFAIPETLQDSAGFVPGDYWKELQHRLLDIQDTRLKLMDAHGIETMILSLAAPAVQAIPDRRKAIEIARRANDFLAEECAKRPDRFLAFAALPLQDPDAATEELQRCVNDLGFVGALVNGFSQEGDGQTPLYYDLPQYRPFWGEVEKLDVPFYLHPRNPLPQDSRIYDGHPWLLGPTWAFAQETAVHALRLMASGLFDEHPRLQIILGHMGEGLPYMMYRIDHRIAWVHEPPRYPAKRRFMDYFNENFHITTSGNFRTQTLIDAILEIGADRILFSTDWPFENIDHASDWFNATSIAEADRVKIGRTNARRLFKLDGA | 1.5
124 (protein, Dicamba decarboxylase variant clone: S03969214) MAQGKVALEEHFAIPETLQDSAGFVPGDYWKELQHRLLDIQDTRLKLMDAHGIETMILSLAAPAVQAIPDRRKAIEIARRANDFLAEECAKRPDRFLAFAALPLQDPDAATEELQRCVNDLGFVGALVNGFSQEGDGQTPLYYDLPQYRPFWGEVEKLDVPFYLHPRNPLPQDSRIYDGHPWLLGPTWAFAQETAVHALRLMASGLFDEHPQLNIILGHMGEGLPYMMWRIDHRVAWGKLPPAYPAKRRFMDYFNENFHITTSGNFRTQTLIDAILEIGADRILFSTDWPFENIDHASDWFNATSIAEADRVKIGRTNARRLFKLDGD | 1.4
107 (protein, listed as Rhodopseudomonas palustris) MAIIDIHGHYTTAPKALEDWRNRQIAGIKDPSVMPKVSELKISDDELQASIIENQLKKMQERGSDLTVFSPRASFMAHHIGDFNVSSTWAAICNELCYRVSQLFPDNFIGAAMLPQSPGVDPKTCIPELEKCVKEYGFVAINLNPDPSGGHWTSPPLTDRIWYPIYEKMVELEIPAMIHVSTSCNTCFHTTGAHYLNADTTAFMQCVAGDLFKDFPELKFVIPHGGGAVPYHWGRFRGLAQEMKKPLLEDHVLNNIFFDTCVYHQPGIDLLNTVIPVDNVLFASEMIGAVRGIDPRTGFYYDDTKRYIEASTILTPEEKQQIYEGNARRVYPRLDAALKAKGK | 1.7
8 (protein, listed as Metarhizium anisopliae) MARGKINFEEAFELPTLADSSREQAALYIAPKDLDRYIYHIKHPLGERLQLANSHGIGYTIYSLTVPGIQGIPDQSKAEQHATTVNDWIANEIKDHRDRLGAFAALSMHDAAQAAAELERCVRQHGFHGALLNNYQHAGPDGETYLFYDQPAYDVFWQKCVELDVPVYLHPAAPAGNYYKQMYAQRKYLVGPPLSFANDVSLHLLGLVTNGVFDRFPKLKVVVGHLGEHIPFDFWRISHWLEDVERPLAAGRGDVMSKKDLLYYFKNNIWVTTSGHFSTPTVRYVADYLGPERIMFSVDTPYETIENGVGWFDGEEDALTRALGGEDGYKKVARENAKKLFKLTKYHDCDA | 1.3
